The target of this experiment is neonatal Fc receptor (FcRn) protein, immobilized on a column (UniProt P55899). The experiment in a line: FcRn affinity chromatography; FcRn immobilised on an affinity column (Roche); 30 µg antibody in 20 mM MES, 140 mM NaCl pH 5.5; 10 min at 20% buffer B (20 mM Tris, 140 mM NaCl pH 8.8), then 20-100% buffer B over 80 min; 0.5 mL/min.
Sequence of UniProt P55899 (P55899 24-297): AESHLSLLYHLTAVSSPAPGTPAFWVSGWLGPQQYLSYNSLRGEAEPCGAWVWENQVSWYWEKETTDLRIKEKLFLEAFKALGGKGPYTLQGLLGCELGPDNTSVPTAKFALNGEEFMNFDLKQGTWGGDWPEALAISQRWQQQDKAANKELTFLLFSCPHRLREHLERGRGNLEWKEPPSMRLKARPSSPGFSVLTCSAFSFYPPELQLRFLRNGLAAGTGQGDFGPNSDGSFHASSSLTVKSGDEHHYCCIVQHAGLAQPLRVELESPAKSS
Regarding “Bapi (control), control variant without mutations (antibody)”, the FcRn ret. time came out at 46.4 min.
Under “Bapi-Fab8D3 (bispecific bapineuzumab IgG1, knobs-into-holes, with a single-chain Fab of the TfR antibody 8D3 on the C-terminus of one heavy chain; L234A, L235A, P329G) (bispecific antibody)” stands 46.4 min; under “Bapi (monospecific bapineuzumab IgG with effector function reducing mutations L234A, L235A, P329G) (antibody)”, 46.4 min.

These data come from article PMC11028011.
